In the nanobody polyreactivity screen of Harvey et al. (2022):

Test: yeast display, Sf9 membrane polyspecificity reagent, FACS + sequencing; frameworks hold sequencing errors
Summary of the method: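 A synthetic nanobody library was expressed on Saccharomyces cerevisiae BJ5465 by galactose induction for 36–48 hours. The library was stained for 1 hour at 4 °C with 10% biotinylated, detergent-solubilized Sf9 membrane reagent and enriched with streptavidin microbeads before FACS. Low and high (top ~1%) gates were set on anti-HA fluorescence for expression and streptavidin fluorescence for reagent binding, and each polyreactivity label reflects the gate of origin.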

| Sequence | polyreactivity (PSR sort gate) |
| --- | --- |
| QVQLVESGGGLVQAGGSLRLTCAASGSTFYIYAMGWYRQAPGKERELVARISGSGGSTYYADSVKGRFTISRDNAKNTVYLQMNSLKPEDTAVYYCAADDIYKYYQYYAFPYYRYDYWGQGTQVTVSS | low polyreactivity |
| QVQLGESAGGLVQAGGSLRLSCAASGFTFYPYAMGWYRQAPGKEREFVAAITWRGASTYYADSVKGRFTISRDNGKNTVYLQMNSLKPEDTAVYYCNARWRVPRGYDYWGQGTQVTVSS | high polyreactivity |
| QVQLVESGGRLVQAGGSLRLSCAPSGRTFRWYAMGWYRQSPGKERELVAAISRSGGSTYYADSVKGRFTISRDNAKYTVFLQMNILKPEDTAVYYCANVRYDFKLDYWGQGTQVTVSS | high polyreactivity |
| QVQLVESGGGLVQAGGSLRLSCAASGSTFYLYAMGWYRQAPGKEREFVARISASGGNTYYADSVKGRFTISRDNAKNTVYLQMNSLKPEDTAVYSCAARVRGRNASDYDYYYWGQGTQVTVSS | high polyreactivity |
| QVQLVESGGGLVQAGGSLRLSCAASGRTFYKYAMGWYIQAPGKERELVARISGRGGRTYYADSVKGRFTISRDNAKNTVYLQMNSLKPEDTEVYYCASDWVPINVKSLVVTYDYWGQGTQVTVSS | low polyreactivity |
| QVQLVESGGGLVQAGGSLRLSCAASGFTFTENVMGWYRQAPGKEREFVAAITYIGGRTYYADSVKGRFTISRDNAKNTVYLQMNSLKPEDTAVYYCAADWAYYVASYLYYTFDYWGQGTQVTVSS | low polyreactivity |
| QVQLVDSGGGLVQAGGSLRLSCPASGIIIARNTMGWYRQAPGKERELVAAISTRGTTTYYADSVKGRFTISRDNAKNTVYLQMNSLKPEDTAVYSCAAFRVHTDRYNYWGQGTQVTVSS | high polyreactivity |
| QVQLVESGAGLVQAGGSLRLSCAASGSIFYVYAMGWYRQAPGKERELVAAISSSAGSTYYADSVKGRFTISRDNAKNTVYLQMNSLKPEDTAVYYCAAKVRYSLRKYYYWGQGTQVTVSS | high polyreactivity |
| QVQLVESGVGLVQAGGSLRLSCAASGITFYSYAMGWYRQAPGKERELVAAITLTGGTTYYADSVKGRFTISRDNAKNTVYLQMKSLKPEDTAVYYCAAQYWWWSLFEYDSWGQGTQVTVSS | low polyreactivity |
| QVQLVESGGGLVQAGGSLRLSCAPSGRIFFHYAMGWYRQAPGKERELVAAISRRGGNTYYADSVKGRFTISRDNAKNTVYLQMNRLKPEDTAVYYCAAQYRVGYDYWGQGTQVTVSS | high polyreactivity |
| QVQLVESGGGLVQAGGSLRLSCAASGYTFGTYAMGWYRQAPGKERELVAAITTNVGSTYYADSVKGRFTISRDNAKNTVYLQMNSLKPEDTAVYYCAADVGWRFGDITYWAYDYWGQGTQVTVSS | low polyreactivity |
| QVQLVESGGGLVQAGGSLRLSCAASGSTLWFNAMGLYRPAPGKERELVAAINWSGGSTYYADSVKGRFTISRDNAKNTVYLQMNSLKPEDTAVYYCAAVYQYVHYVWYDYWGQGTQVTVSS | low polyreactivity |
| QVQLVESGGGLVQAGGSLRLSCAASGFTFARYTMGWYRQEPGKERELVAAISSRGSSTYYADSVKGRFTISRDNAKNTVYLQMNSLKPEDTAVYYCAAPPRYGYDYWGQGTQVTVSS | high polyreactivity |
| QVQLVESGGGLVQAGGILRLSCAASGGTFTYNAMGWYRQAPGKERELVAAITNGGGSTYYADSVKGRFTISRDNAKNTVYLQMNSLKPEDTAVYYCAARWWYYYTEYDYWGQGTQVTVSS | low polyreactivity |
| QVQLVESGGGLVQAGCSLRLSCAASGSTLNSYFMGWYRQAPGKERELVATIRSGSSTNYADSVKGRFTISRDNAKNTVYLQMNILKPEDTAVYYCAADAYSLCYDSWGQGTQVTVSS | low polyreactivity |
| QVQLVESGGGLLQAGGSLRLSCAASGRTFGSYAKGWYRQAPGKERELVAGIRSDDITHYADSVKGRFTISRDNAKNTVYLQMNSLKPEDTAVYYCAKDYKCIATEGAFDYWGQGTQVTVSS | low polyreactivity |
| QFQLVESGGGLVQAGGSLRLSCAASGSIFVLYAMGWYRQAPGKERELVAAITSAGSTYYADSVKGRFTISRDNAKNTVYLQMNSLKPEDTAVYYCAAGFYGYARHTWYNDWGQGTQVTVSS | high polyreactivity |
| QVQLVESGGGLVQAGGSLRLSCAASGITIYDYTMGWYRQAPGKERELVAVITSAGSTYYADSVKGRFTISRDNAKNTVYLQMNSLKPEDTAVYYCAAVIVSRGRKYRLDYWGQGTQVTVSS | high polyreactivity |
| QVQLVESGGGLVQAGGSLRLSCAASGRTFYVNDMGWYRQAPGKERELVAAISYRGGSTYYADSVKGRFTISRDNAKNTVYLQMNSLKPEDTAVYYCAAELTYRYRFYYLYSMYYWGQGTQVTVSS | low polyreactivity |
| QVQLVESGGGLVQARGSLRLSCAASGSTFGRYVMGWYRQAPGKERELVAAISKNAGSTYYADSVKGRFTISRDNAKNTVYLQMTSLKPEDTAVYYCAADWRTKGYDSLGQGTQVTVSS | high polyreactivity |
| QVQLVESGGGLVQAGGSLRLSCAASGRIFSRNAMGWYRQAPGKERELVAAISSSAGSTYYADSVKGRFTISRDNAKHTVYLQMNSLKPEDTAVYYCGAESVGDMDYWGQGTQVSVSS | low polyreactivity |

| Sequence | polyreactivity (PSR sort gate) |
| --- | --- |
| QVQLVESGGGLVQAGGSLRLSCAASGRTFRGYVMGWYRQAPGKEREFVAAITRSDGSTYYADSVKGRFTISRDNAKNTVYLQMNSLKPEDTAVYYCAADLRRFQSYYYWGQGTQVTVSS | high polyreactivity |
| QVQLVESGGGLVQAGGSLRLSCAASGYIFYTYAMGCYRQAPGKERELVAGISGSGGSTYYADSVKGRFTISRDNAKNTVYLQMNSLNPEETAVYYCAKDIYQIGYRRYDSWGQGTQVTVSS | low polyreactivity |
| QVQLVESAGGLVQAGGSLRLSCAASGRIFHKNAMGWYRQAPGKERELVATINYGGSSTYYADSVKGRFTISRDNAKNTVYLQMNSLKPEDTAVYYCAAAPEYLTDHAYWGQGTQVTVSS | low polyreactivity |
| QVQLVESGGGLVQAGGSLRLSCAASGRILKSYAMGWCRHAPGKERELVAAIRSGGSTYYADSVKGRFTISRDNAKNTVYLQMYSLKPEDTAVYYCNRVTRTWKVNYHYWGQGTQVTVSS | high polyreactivity |
| QVQLQVSGGDLVQAGGSLRLSCAASGTIYGLTAMGWYRLAPGKEREFVAAITDGGNTNYADSVKGRFTISRDNAINTVYLQMISLKPEDTAVYYCAVLFSDDAYYAYWGQGTQVTVSS | low polyreactivity |
| QVLLQESGGLVQAGCSLRMSCAASGSISTALSMGWYRQAPGKERELVATISDGASTNYADSVKGRFTISRVNAKNTVYLQMNSLKPEDSEVYYCAAQSQYRPDHRYWGQGTQVTVSS | high polyreactivity |
| QVQLGESGGGLVQAGGSLRLSCAASGRIFYLNAMGWYRQAPGKERELVAVITGNAGCTYYADSVKGRFTISRDHAKNTVYLQMNSLKPEDTAVYYCNALRLVPWSDALYDYWGQGTQVTVSS | low polyreactivity |
| QVQLVESGGGLVQAGGSLRLSCAASGRTYSYNAMGWYRQEPGKERELVAGITYTGGRTYYADSVKGRFTISRDNAKNTVYLQMNSLKPEDTAVYYCAVGEYGHWLYRYEYWGQGTQVTVSS | high polyreactivity |
| QVQLEESGGGLVQAGCSLRLSCAASGSTFVRYAMGWYRQAPGKERELVAAISWSGASTYYADSVKGRFTISRDNAKNTVYLQMNSLKPEDTAVYYCAARSRWYDAAGYQKYYYWGQGSQVTVSS | high polyreactivity |
| QVQIVESGGGLVQAGGSLRLSCAASGRIFGYNAMGWYRQAPGKERELVAAISNTGGSTYYADSVKGRFTISRDNAKNTVYLQMNSLKPEDTAVYYCNASGRRVQIWEGDYWGHGTQVTVSS | high polyreactivity |
| QVQLVESGGGLVQAGGSLRLSCAASGLTFYAYAMGWYRQAPGKERELVAGISRSGGRTYYADSVKGRFTISRDNAKNTVYLQMNSLKPEDTAVYYCAAGIPVTSRFYGMDWGQGTQVTVSS | high polyreactivity |
| QVQLVESGGGLVQAGGSLRLSCAASGSIFIVNAMGWYRQAPGKERELVAAITWSGGNTYYADSVKGRFTISRDNAKNTVYLQMNSLKPEDTAVYYCNSYWRGAFDYWGQGTQVTVSS | high polyreactivity |
| QVQLVESGGGLVQAGDSLRLSCAASGLTFTYYAMGWYRQAPGKERELVAAITGSGDRTYYADSVKGRFTISRDNAKNTVYLQMNSLKPEDTAVYYCARDRPGRATGFDYWGPGTQVTVSS | high polyreactivity |
| QVQLVESGGGLVQAGGSLRLSCAASGRIFYGYDMGWYRQAPGKERELVAAITRGVSTYYADSVKGRFTISRDNAKNTVYLQMNSLKPEDTAVYYCAADLSPYVNYWWEYYYWGQGTQVTVSS | low polyreactivity |
| QVQLVESGGGLVQAGGSLRLSCAASGRTFKKYAMGWYRQAPGKERELVAGITGSGGSTYYADSVKGRFTISRDNAKNTVYLQMNSLKPEDTAVYYCAAYAYGGWHSQDGGNYWGQGTQVTVSS | low polyreactivity |
| QVQLVESGGGLVQAGGSLRLSCAASGIIFTWYAMGWYRQAPGKERELVAAISGSGDITYYADSVKGRFTISRDNAKNTVFLQMNSLKPEDTAVYYCAADPWTYWEDYDYWGQGTQVTVSS | low polyreactivity |
| QVQLVESGGGLVQAGGSLRLSCAASGRIFVRNAMGWYRQAPGKERELVASISSSSGSTYYADSVKGRFTISRDNAKNTVYIQMNSLKPEDTAVYYCNAGYHFVHWPHVKHKKFDYWGQGTQVTVSS | low polyreactivity |
| QVQLVESGGGLVQAGGSLRLSCAASGRIFYVNAMGWYRQAPGKERELVATIRYSGGSTYYADSVKGRFTISRDNAKNTVYLQMNSLKPEDTAVYYCAARVADYYPGRGYGYWGQGTQVTVSS | high polyreactivity |
| QVQLVESGGGLVQAGGSLRLSCAASGSIFTQYAMGWYRQAPGKEREFVARITGSGGRTYYADSVKGRFTISRDNAKNTVYLQMNSLKPEDTAVYYCAARDVRPYYVKPPVRYYYWGQGTQVTVSS | high polyreactivity |
| QVQLVESGGGLVQAGRSLRLSCAASGSTFHPYAMGWYRQAPGKERELVAAINSGDNTYYADSVKGRFTISRDNAKNTVYLQMNSLKPEDTAVYYCAVRYWDESHTEYDYWGQGTQVTVSS | low polyreactivity |
